Test results reported in patent US20170044236A1 (GENERAL HOSPITAL, published 2017).
Where a chain is given by its changes, count along the chain named.

Legend:
[1] = biological target: T1, αVβ3(N339/S) on HEK293T cells (human, UniProt P06756 31-1048; P05106 27-788); assay: flow cytometry, fluoresceinated fluid-phase FN10 on transfected HEK293T cells, Ca2+/Mg2+
T1 construct: also called αVβ3^N/S; active αVβ3(N339/S)
T1 chain 1: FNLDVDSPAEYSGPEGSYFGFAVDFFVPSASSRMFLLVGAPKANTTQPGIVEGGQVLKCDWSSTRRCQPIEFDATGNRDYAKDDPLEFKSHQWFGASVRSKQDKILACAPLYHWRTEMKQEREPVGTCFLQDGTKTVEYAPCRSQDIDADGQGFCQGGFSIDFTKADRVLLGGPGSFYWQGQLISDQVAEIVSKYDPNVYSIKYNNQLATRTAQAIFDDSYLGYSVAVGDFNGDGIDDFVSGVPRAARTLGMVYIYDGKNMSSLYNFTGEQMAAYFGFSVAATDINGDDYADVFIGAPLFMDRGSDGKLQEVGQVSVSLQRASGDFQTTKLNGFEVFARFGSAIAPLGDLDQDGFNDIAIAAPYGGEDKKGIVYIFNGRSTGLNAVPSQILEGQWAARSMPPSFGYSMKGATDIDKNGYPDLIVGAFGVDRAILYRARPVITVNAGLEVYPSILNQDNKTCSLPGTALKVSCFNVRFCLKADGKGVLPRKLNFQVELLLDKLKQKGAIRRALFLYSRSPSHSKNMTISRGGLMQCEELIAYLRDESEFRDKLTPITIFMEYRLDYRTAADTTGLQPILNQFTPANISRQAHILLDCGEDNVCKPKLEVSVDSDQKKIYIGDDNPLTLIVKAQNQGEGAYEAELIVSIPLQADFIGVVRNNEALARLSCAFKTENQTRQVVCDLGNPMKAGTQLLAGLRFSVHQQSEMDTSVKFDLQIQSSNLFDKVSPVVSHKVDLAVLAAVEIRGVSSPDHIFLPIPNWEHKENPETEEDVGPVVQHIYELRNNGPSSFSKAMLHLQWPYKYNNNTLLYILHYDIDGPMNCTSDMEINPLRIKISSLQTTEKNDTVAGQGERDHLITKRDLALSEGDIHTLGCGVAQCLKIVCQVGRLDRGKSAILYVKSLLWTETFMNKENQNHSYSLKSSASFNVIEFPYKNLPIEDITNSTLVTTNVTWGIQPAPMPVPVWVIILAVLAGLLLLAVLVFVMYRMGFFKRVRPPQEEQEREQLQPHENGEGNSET
T1 chain 2: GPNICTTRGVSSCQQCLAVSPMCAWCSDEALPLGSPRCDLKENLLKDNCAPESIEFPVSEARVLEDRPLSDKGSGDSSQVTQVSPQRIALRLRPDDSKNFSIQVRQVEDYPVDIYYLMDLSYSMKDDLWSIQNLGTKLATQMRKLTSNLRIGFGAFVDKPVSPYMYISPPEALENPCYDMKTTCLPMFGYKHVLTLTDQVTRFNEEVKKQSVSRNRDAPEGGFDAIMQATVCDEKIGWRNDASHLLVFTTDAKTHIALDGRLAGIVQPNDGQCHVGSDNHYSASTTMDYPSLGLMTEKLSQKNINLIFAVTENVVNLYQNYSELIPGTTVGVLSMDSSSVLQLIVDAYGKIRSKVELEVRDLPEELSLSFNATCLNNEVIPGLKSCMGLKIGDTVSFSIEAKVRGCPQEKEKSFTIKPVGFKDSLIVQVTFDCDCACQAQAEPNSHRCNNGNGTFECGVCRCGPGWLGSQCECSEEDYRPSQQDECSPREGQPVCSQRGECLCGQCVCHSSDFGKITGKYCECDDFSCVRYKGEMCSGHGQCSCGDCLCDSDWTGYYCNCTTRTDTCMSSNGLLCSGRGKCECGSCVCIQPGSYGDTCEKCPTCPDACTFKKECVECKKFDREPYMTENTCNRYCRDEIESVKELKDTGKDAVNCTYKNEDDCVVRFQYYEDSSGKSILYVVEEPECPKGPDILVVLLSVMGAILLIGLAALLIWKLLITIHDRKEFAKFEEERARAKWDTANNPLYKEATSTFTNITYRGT

[2] = biological target: T2, wild-type integrin αVβ3 on cells (K562-αVβ3, M21, HEK293T) (human, UniProt P06756 31-1048; P05106 27-788); assay: flow cytometry, fluoresceinated fluid-phase FN10 on K562-αVβ3 cells
T2 construct: also called WT αVβ3; cellular αVβ3
T2 chain 1: T1 chain 1
T2 chain 2: T1 chain 2 with S339N

[3] = biological target: T1, αVβ3(N339/S) on HEK293T cells; assay: flow cytometry, fluorescein-tagged hFN10-G on cells

B1: wild-type 10th type-III RGD-domain of human fibronectin (wtFN10) (ligand)
chain: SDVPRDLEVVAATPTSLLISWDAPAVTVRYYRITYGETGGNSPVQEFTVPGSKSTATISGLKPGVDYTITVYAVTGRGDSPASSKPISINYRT
notes: Expressed in bacteria with an N-terminal His tag (S1417-T1509) and a thrombin cleavage site; also called wild-type FN10
[1]
  fold increase of binding (N339/S over wild-type αVβ3): 6 fold
[2]
  fold increase of binding (Mn2+ over Ca2+/Mg2+): 10 fold

B2: hFN10-G (designed binder)
chain: SDVPRDLEVVAATPTSLLISWDAPAVTVRYYRITYGETGGNSPVQEFTVPGSKSTATISGLKPGVDYTITVYAVTPGRGDWNEGSKPISINY
notes: Fluorescein-tagged in the assay; also called mhFN10
[3]
  binding result: no binding
